From patent CN113461822A

Columns and labels:
[1] = target: Scl-70抗原 (人DNA拓扑异构酶I的C末端片段的70kD分子量蛋白) (human) (UniProt P11387); experiment: chemiluminescence immunoassay on Scl-70-coated magnetic microspheres, ABEI-anti-human IgG; CHO supernatant undiluted
[2] = target: Scl-70抗原 (人DNA拓扑异构酶I的C末端片段的70kD分子量蛋白) (human) (UniProt P11387); experiment: chemiluminescence immunoassay on Scl-70-coated magnetic microspheres, ABEI-anti-human IgG; CHO supernatant diluted 30-fold
[3] = target: Scl-70抗原 (人DNA拓扑异构酶I的C末端片段的70kD分子量蛋白) (human) (UniProt P11387); experiment: chemiluminescence immunoassay on Scl-70-coated magnetic microspheres, ABEI-anti-human IgG; CHO supernatant diluted 150-fold
[4] = target: Scl-70抗原 (人DNA拓扑异构酶I的C末端片段的70kD分子量蛋白) (human) (UniProt P11387); experiment: chemiluminescence immunoassay on Scl-70-coated magnetic microspheres, ABEI-anti-human IgG; CHO supernatant diluted 50-fold
[5] = target: Scl-70抗原 (人DNA拓扑异构酶I的C末端片段的70kD分子量蛋白) (human) (UniProt P11387); experiment: chemiluminescence immunoassay on Scl-70-coated magnetic microspheres, ABEI-anti-human IgG; CHO supernatant diluted 200-fold
[6] = target: Scl-70抗原 (人DNA拓扑异构酶I的C末端片段的70kD分子量蛋白) (human) (UniProt P11387); experiment: chemiluminescence immunoassay on Scl-70-coated magnetic microspheres, ABEI-anti-human IgG; CHO supernatant diluted 100-fold
[7] = target: Scl-70抗原 (人DNA拓扑异构酶I的C末端片段的70kD分子量蛋白) (human) (UniProt P11387); experiment: chemiluminescence immunoassay on Scl-70-coated magnetic microspheres, ABEI-anti-human IgG; CHO supernatant diluted 10-fold

| Binder | 原液RLU [1] [RLU] | 稀释30倍RLU [2] [RLU] | 稀释150倍RLU [3] [RLU] | 稀释50倍RLU [4] [RLU] | 稀释200倍RLU [5] [RLU] | 稀释100倍RLU [6] [RLU] | 稀释10倍RLU [7] [RLU] |
| --- | --- | --- | --- | --- | --- | --- | --- |
| 抗体1 (实施例11; 2D6抗体) (antibody, human IgG1, kappa, V domains shown) VH: EIQLVQSGSEVVRTGTSVKLSCKASGYRFTSYWMHWVKQRPGQGLEWIGNINPGDGRTNYDENFKNKATLTVDPSSNTAYMQLNSLTSEDSAVYYCTRDGNYGIFDYWGRGTSVTVSS VL: NIVMTQSPSSLVVSAGEKVTLSCKSSQSLLYSSNQKNYLAWFQQKPGQSPKLLIYWASTRESGVPDRFTGSGSRTDFTLTISSVQAEDMAVYYCHQYIYLWSFGGGSKLEIER | 1.64e+06 | 355000 | 73100 | 220000 | 55400 | 140000 | 1.01e+06 |
| 抗体4 (实施例14) (antibody, human IgG1, kappa, V domains shown) VH: EVKLVESGGGLVQPGGSRKLSCAASGFTFSSYWMHWVRQAPEKGLEWVAYISSGGITIYYADTVKGRFTISRDNPENTLFLQMTSLTSEDTAIYYCARRAAYGNYDWYFDVWGAGTTVTVSS VL: NIVMTQSPSSLVVSAGEKVTLSCKSSQSLLYSSNQKNYLAWFQQKPGQSPKLLIYWASTRESGVPDRFTGSGSRTDFTLTISSVQAEDMAVYYCHQYIYLWSFGGGSKLEIER | 2.46e+06 | 609000 | 124000 | 379000 | 85700 | 171000 | 1.74e+06 |
| 抗体5 (实施例15) (antibody, human IgG1, kappa, V domains shown) VH: EIQLVQSGSEVVRTGTSVKLSCKASGYRFTSYWMHWVKQRPGQGLEWIGNINPGDGRTNYDENFKNKATLTVDPSSNTAYMQLNSLTSEDSAVYYCTRDGNYGIFDYWGRGTSVTVSS VL: DIELTQSPSSLVVSAGEKVTLSCKSSQSLLYSSNQKNYLAWFQQKPGQSPKLLIYWASTRGSGVPDRFTGSGSRTDFTLTISSVQAEDMAVYYCHQYIYLWSFGGGTKLEIKR | 2e+06 | 421000 | 89300 | 239000 | 59200 | 129000 | 1.31e+06 |
| 抗体6 (实施例16) (antibody, human IgG1, kappa, V domains shown) VH: EVKLVESGGGLVQPGGSRKLSCAASGFTFSSYWMHWVRQAPEKGLEWVANINPGDGRTNYDENFKNRFTISRDNPENTLFLQMTSLTSEDTAIYYCARRAAYGNYDWYFDVWGAGTTVTVSS VL: NIVMTQSPSSLVVSAGEKVTLSCKSSQSLLYSSNQKNYLAWFQQKPGQSPKLLIYWASTRESGVPDRFTGSGSRTDFTLTISSVQAEDMAVYYCHQYIYLWSFGGGSKLEIER | 1.08e+06 | 329000 | 57600 | 177000 | 43500 | 86400 | 801000 |
